Sequences and labels used below:
B1: Eterna 7614506 (Exclusion - Tryptophan A) (ssRNA)
RNA: UAUAUAUAUCACGAACUGUGGUGUAUGUCUCGAGGACCGGUACGGCCGCCACUCGCGCGGCCUCACAUGAGGAUCACCCAUGUUG
B2: Eterna 7727518 (Exclusion - Tryptophan B) (ssRNA)
RNA: GUUUUGGGAUCGGCCGCCACUACAUGAGGAUCACCCAUGUGGACAAAUAGGGUUUUUAAGCUCGGUAGGACCGGGAUUCGAACAU
B3: Eterna 5789023 (Sensor v3, turn-off variant 2) (ssRNA)
RNA: ACAAGCUUUUUGUUCGUCUUAUAAAAUCCUAAGAGGAAAACAUGAGGAUCACCCAUGUAACAAAGACGGACUCAUGU
B4: Eterna 13502 (Sensor v3, turn-off variant 2) (ssRNA)
RNA: AGUAGAUCUACGCUUGCGUGGAUCUGCAAUGUAGGUGUUACAUGAGGAUCACCCAUGUCCUCAUUUGCUCGUCUUAG
B5: Eterna 6030125 (Exclusion 6) (ssRNA)
RNA: GUGCGUGGCUAGGAUAUUGUGGAGUUUUGUCAGCGAGAAGGAGCCACAUGAGGAUCACCCAUGUGGUGUUGCUC
B6: Eterna 7742068 (Same State - Tryptophan B) (ssRNA)
RNA: AGUACAAUGGCGGCCGCCACUCAACGCAGAUCAAAGAUCUGCGUUCACUCAGUGAUGUUGAGUGAGAGGACCGGGCCUUUGUACA
B7: Eterna 9534 (Sensor v3, turn-off variant 2) (ssRNA)
RNA: GGUACUAUCACCUGAGUGGUAGUGCCAUAAGCUUGUGAUACAUGAGGAUCACCCAUGUCCUCAUUUGCUCGUCUUAU
B8: Eterna 6061522 (Exclusion 3) (ssRNA)
RNA: AAUUCGGCAGGAUAUACAUGAGGAUCACCCAUGUAAAUUUUUCGUUUAACUUGAAUGUGUAGAAGGGCCAUUUA
B9: Eterna 15484 (Exclusion 5) (ssRNA)
RNA: CUUUGAUGAGGAUAUCGAGGUUAGUACAUGAGGAUCACCCAUGUUAUCCAGGUGUCGGAUCGAGAAGGUAUUGGAC
B10: Eterna 6120937 (Same State NG 1) (ssRNA)
RNA: GCCAUCACAUGAGGAUAUGGCACCGUUUCGGUGCCAGAAGGCAUGUCAUAAGACAUGAGGAUCACCCAUGUAGUUAAGAUGGCA
B11: Eterna 6456081 (Exclusion NG 2) (ssRNA)
RNA: GGAUAGGACAGAGGAUAUACGUGCUAGAGAUACUAGCAAAAUUUCCACACAUGAGGAUCACCCAUGUAGAAGGCUGUCCUAUCG
B12: Eterna 7739799 (Exclusion - Arginine A) (ssRNA)
RNA: CAGACCACAGAGUGAUGUUCUGUGUCCGAAGGAGCGCGCGAGAGCGCAGGUAGGUCGCGGAUACAGUUGACGUACCUUCAAGACA
B13: Eterna 7700218 (Same State - Theophylline A) (ssRNA)
RNA: UGGUUAAGCAGUGAUGUUGCAAGUGAUGAUACCAGUUAAGAAGAGAACCCUUGGCAGCAUAAAGUGCGCUCUGAUGAGUGUGCUU
B14: Eterna 5989570 (Sensor, turn-off variant 1) (ssRNA)
RNA: GUCAUCACACAUGGGAUCAACAUGAGGAUCACCCAUGUUGUCAAGUUUUUUGCUCGUCUUAUAAUACGUUUGAUGAC
B15: Eterna 7698835 (Same State - Arginine B) (ssRNA)
RNA: GCUAUGGUAGGAAGGAGCGCUUAUUUAUUUUUACGAGUGAUGUUCGGUAGUAGAUAGUUAAAGCAGGUAGGUCGCCUACUAUAGC
B16: Eterna 1699 (Same State - Theophylline B) (ssRNA)
RNA: UCGCAUUAACCGGAUACCAGCUUAGUGGGAUCUUCAAUCCGACAGAAAGUGAUGUUUUCUAGCCCUUGGCAGCCGAGAUUAUCAC
B17: Eterna 11801 (Exclusion 2) (ssRNA)
RNA: AGUAACAGAGGAUAUACUGUUUUAUGUGUUUAUUAUUUUGAACAUGAGGAUCACCCAUGUAGAAGGCUGAAUAA
B18: Eterna 1729 (Same State - Tryptophan A) (ssRNA)
RNA: GGAGUCCCGUUAGAUUGUGUAGAUACAAGACGAGGACCGGUACGGCCGCCACUCGCCAUCGUCCAGUGAUGUUGGGCGUCACGGG
B19: Eterna 7686162 (Exclusion - FMN A) (ssRNA)
RNA: UACAUAUAAUUAUUUCUACAUUUAUUUAGUCAGGAUAUCGAUUAAACGAGAAGGGACAAUAUCAAGUGAUGUUUGAUAAUUCAAA
B20: Eterna 1774 (Same State - Tryptophan B) (ssRNA)
RNA: CGAUCUUGGUCGGCCGCCACUACACCCACACCAAAUAGGAAAGUAGCGAGUGAUGUUUGUGACGUUAGGACCGGGACCACUGGUC
B21: Eterna 6415900 (Inverted Small Loop Same State NG 3) (ssRNA)
RNA: UGCUACGUUUCGUAGCAGUGUCAUCGAGAAGGCCCUGACAUGAGGAUCACCCAUGUUGUUACAUGGGAGGAUAUCGAUGAUACA
B22: Eterna 6418068 (Inverted Exclusion NG 1) (ssRNA)
RNA: CGUGCUAUGUAGAAGGCAGAUCUGAUUCAGAUCUGAGGAUAUACAUGAGGAUCACCCAUGUUAUGCACCAGCACGAGAGUGCAC
B23: Eterna 7745506 (Same State - Arginine B) (ssRNA)
RNA: CCGGGCGGCCGAAGGAGCGGGCGGACCCGAGUGAUGUUCGGGUGGCCCGUGAGGGCCGGUGCCCAGGUAGGUCGCGGAUCCGCCC
B24: Eterna 7740606 (Exclusion - Theophylline A) (ssRNA)
RNA: AAGUCUCGUUAAUUCGAGGUUACGAUCGAUACCAGUAGCGAGAGGUACCCUUGGCAGCGAAGUGAGUGAUGUUCAUGAAAGAAGA
B25: Eterna 7684838 (Same State - Theophylline A) (ssRNA)
RNA: AAAUUUAAUAUAUUUAAAUAAAUAUGUGAUACCAGACAUUUAUAAGUCCCUUGGCAGCACAAUGCAGUGAUGUUGCUUAUAAUAA
B26: Eterna 6117727 (Exclusion NG 3) (ssRNA)
RNA: GGUUGUCAUAGUCAUCCUUUCCGUACAUGAGGAUCACCCAUGUAGGAUAUGCUACUCACAGUGUGGCAGAAGGGCGUGUGUCUU
B27: Eterna 6430466 (Small Loop Same State NG 3) (ssRNA)
RNA: UUCGAGCCAAGGCUCGCGAGUACACAGGAUAUGGAAAGUCACAUGAGGAUCACCCAUGUCCAAAACCAGAAGGGUGAGACUAAG
B28: Eterna 1186 (Exclusion - Theophylline B) (ssRNA)
RNA: GAUAGUUAGAGAGAUACCAGCGAUACCUAGAUGGAAAGUGAUGUUCGCCAUCAAUUGCACCGCCCUUGGCAGCUCUCUCUUUGCU
B29: Eterna 7691283 (Same State - Arginine B) (ssRNA)
RNA: AUUCUAUUGUGAAGGAGCGCGACUAGUAGUGAUGUUACUAUAUGACUUUAGUCUUAAUUCUCGCAGGUAGGUCGCACAAUAUAUA
B30: Eterna 5979585 (Sensor, turn-off variant 1) (ssRNA)
RNA: UACACUGCAUGAGGAUCAAACAUGAGGAUCACCCAUGUAUAGCAGGCUUUUUGUACGUCUUAUAAUUAUGUAGUGUA
B31: Eterna 13336 (Sensor for hsa-mir-208a) (ssRNA)
RNA: AGUCCAGCCAGAGCUGGACAAAAGCAUGUACAUGAGGAUCACCCAUGUUCAUGUACAAGCUUUUUGCUCGUCUUAAA
B32: Eterna 7716240 (Exclusion - Theophylline B) (ssRNA)
RNA: GGUUUAUAAGAGGAUACCAGUACAAAUAAAGUACAUUAAUAGUAGAGUGAUGUUCUAAAGUACCCUUGGCAGCUUAGAUUAAGUU
B33: Eterna 1179 (Exclusion - Theophylline B) (ssRNA)
RNA: CACCCAGUCCUCGAUACCAGACUGGCACGUCAAAAGGUCCAGUGAUGUUGAGCCUAACAAGUCCCUUGGCAGCGACCAGUGUAUU
B34: Eterna 7646211 (Same State - Theophylline A) (ssRNA)
RNA: CAUACUUUAGUAUGUAAUGUGGACAGUGAUACCAGAUACGAAAGUAUCCCUUGGCAGCACAACAUGAGGAUCACCCAUGUAUUUU
B35: Eterna 6103763 (Same State NG 3) (ssRNA)
RNA: CAUUGACGACAAUUACAUGAGGAUCACCCAUGUUUUGGGAUGCAGGAUAUGUGGUAUAUUAAUUAACAGAAGGGCAAUAAUUUU

This note sets out measurements from article PMC9170038.

For one data set, the target named is T1, MS2 coat protein, dlFG mutant (Escherichia phage MS2, UniProt P03612, del68-81insG). As to the kind of experiment: 4 mM Mg2+; L-tryptophan 2.4 mM; RNA-MaP array; 100 mM Tris-HCl pH 7.5, 80 mM KCl, 4 mM MgCl2, 0.1 mg/mL BSA, 1 mM DTT, 0.01 mg/mL yeast tRNA, 0.01% Tween-20; protein 1.5 nM to 3 uM; 37 C (Table S3). To be noted: chain copies: 2; label: tethered by stalled RNA polymerase.
B1 had a Kd of 46 nM.

The molecule B2 registered a Kd of 67.5 nM.

Another data set deals with T1, MS2 coat protein, dlFG mutant. As to the kind of experiment: 4 mM Mg2+; no ligand; RNA-MaP array; 100 mM Tris-HCl pH 7.5, 80 mM KCl, 4 mM MgCl2, 0.1 mg/mL BSA, 1 mM DTT, 0.01 mg/mL yeast tRNA, 0.01% Tween-20; protein 1.5 nM to 3 uM; 37 C (Table S3). To be noted: chain copies: 2; label: tethered by stalled RNA polymerase.
As for B3, the Kd came to 13 nM.

Take B4: binding was put at a Kd of 312 nM. This Kd lies about 24-fold higher than the previous one.

Regarding B5, binding was put at a Kd of 175 nM.

B6: the Kd is > 3000 nM.

In turn, B7 returned a Kd of 600 nM.

In the case of B8, binding was put at a Kd of 22.8 nM.

As for UUUGGGCAGUGAUGUUGCCCCUUU (ssRNA) [Eterna 7 (K4-TR_control)], the Kd is > 3000 nM.

In the case of B9, the affinity, expressed as Kd, was 14.9 nM. This lies in the double-digit nanomolar range.

Molecule B10 displayed a Kd of 922 nM.

Molecule B11 returned a Kd of 5.84 nM.

With B12, the Kd was > 3000 nM.

For B13, the Kd was > 3000 nM.

For B14, the dissociation constant Kd was 30.2 nM.

As to B15, the equilibrium dissociation constant (Kd) was > 3000 nM.

With B16, the dissociation constant (Kd) was > 3000 nM.

The molecule B17 returned a Kd of 23.2 nM.

Turning to B18, the Kd was > 3000 nM.

Take B19: the Kd is > 3000 nM.

Turning to B20, the dissociation constant (Kd) is > 3000 nM.

In turn, B21 returned a dissociation constant (Kd) of 12.1 nM.

Regarding B22, the affinity, expressed as Kd, was 7.12 nM.

As to B23, the dissociation constant Kd was > 3000 nM.

Turning to B24, the dissociation constant (Kd) is > 3000 nM.

With B25, the equilibrium dissociation constant (Kd) is > 3000 nM.

With B26, the Kd turned out to be 17 nM.

B27 displayed a Kd of 458 nM.

Consider B28, for which the Kd was > 3000 nM.

Regarding B29, the equilibrium dissociation constant (Kd) is > 3000 nM.

With B30, the affinity, expressed as Kd, was 15.1 nM.

Molecule B31 gave a dissociation constant (Kd) of 592 nM.

Take B32: the Kd was > 3000 nM.

As to B33, the dissociation constant Kd is > 3000 nM.

For a further data set the target is unchanged. In words: 4 mM Mg2+; theophylline 2 mM; RNA-MaP array; 100 mM Tris-HCl pH 7.5, 80 mM KCl, 4 mM MgCl2, 0.1 mg/mL BSA, 1 mM DTT, 0.01 mg/mL yeast tRNA, 0.01% Tween-20; protein 1.5 nM to 3 uM; 37 C (Table S3). To be noted: chain copies: 2; label: tethered by stalled RNA polymerase.
Molecule B34 displayed a Kd of 13.4 nM. In other words, the double-digit nanomolar range.

The target is the same in the next data set. As to the kind of experiment: 4 mM Mg2+; FMN 200 uM; RNA-MaP array; 100 mM Tris-HCl pH 7.5, 80 mM KCl, 4 mM MgCl2, 0.1 mg/mL BSA, 1 mM DTT, 0.01 mg/mL yeast tRNA, 0.01% Tween-20; protein 1.5 nM to 3 uM; 37 C (Table S3). To be noted: chain copies: 2; label: tethered by stalled RNA polymerase.
B35 returned a dissociation constant (Kd) of 35.5 nM. This lies in the double-digit nanomolar range.

In general, Kd refers to the concentration at which binding is half-saturated. Higher therefore signals a looser complex.
